Consider 2 molecules from publication PMC5861432.

The target in one series is IRF5(4D) (human, UniProt Q13568-2 1-514, S451D;S453D;S456D;S462D). Put plainly: PBM.
Series [1] concerns the target T1, IRF3(6D) (human, UniProt Q14653 1-427, S386D;S396D;S398D;S402D;T404D;S405D).
T1 sequence: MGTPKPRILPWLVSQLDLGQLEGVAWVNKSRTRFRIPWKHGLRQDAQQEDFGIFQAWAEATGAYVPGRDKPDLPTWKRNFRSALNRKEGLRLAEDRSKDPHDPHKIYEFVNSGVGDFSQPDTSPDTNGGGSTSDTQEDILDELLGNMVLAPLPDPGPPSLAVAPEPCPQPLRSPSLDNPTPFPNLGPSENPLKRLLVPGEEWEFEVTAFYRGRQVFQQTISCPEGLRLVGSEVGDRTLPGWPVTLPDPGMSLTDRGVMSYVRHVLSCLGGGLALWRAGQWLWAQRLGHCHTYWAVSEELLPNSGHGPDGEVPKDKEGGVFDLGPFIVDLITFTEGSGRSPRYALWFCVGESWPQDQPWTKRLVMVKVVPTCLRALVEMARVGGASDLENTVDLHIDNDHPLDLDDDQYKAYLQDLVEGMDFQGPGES
Put plainly: PBM.

Series [2] concerns the target T1, IRF3(6D). Put plainly: EMSA.

B1: C-2 PBM probe (dsDNA)
DNA 1: GCCTAGCACTAACCGAAACCGAAACCTAAGTGCTAGGTCTTGATTCGCTTGACGCTGCTG
DNA 2: CAGCAGCGTCAAGCGAATCAAGACCTAGCACTTAGGTTTCGGTTTCGGTTAGTGCTAGGC
Turning to B1, the binding result with IRF5(4D) and in the series with IRF3(6D) [1] was “binds” each time.

B2: proximal dimer (2-bp spacer) (dsDNA)
DNA 1: GCACCGCTAACCGAAACCGAAACTGTGC
DNA 2: GCACAGTTTCGGTTTCGGTTAGCGGTGC
On to B2, for which, in the series with IRF3(6D) [2], the binding result is “binds”.
